From article PMC7430590 (bioRxiv, 2020)

How the values were obtained:
[1] = biological target: SARS-CoV-2 S protein-RBD-mFc (SARS-CoV-2, early reference sequence …, UniProt P0DTC2); assay: SPR
[2] = biological target: receptor binding domain (RBD; residues 319–541) of the SARS-CoV-2 spike (S) protein (SARS-CoV-2, UniProt P0DTC2); assay: crystal structure
[3] = biological target: Fc fusion protein of the RBD-SD1 region of SARS-CoV (SARS-CoV, strain not named, UniProt P59594); assay: ELISA

B1: CV07–209 (antibody, V domains shown)
VH: QVQLVESGGGLVKPGGSLRLSCAASGFTFSDYYMSWIRQAPGKGLEWVSYISSSVSTIYYADSVKGRFTISRDNAKNSLYLQMNSLRAEDTAVYYCARDGVIPPRFDYWGQGTLVTVSS
VL: not shown
Which Kd [1] does the source give for B1 here?
The Kd was 6 pM.

B2: CV07–270 Fab (Fab, V domains shown)
VH: QVQLVESGGGLVKPGGSLRLSCAASGFTFSDYYMTWIRQAPGKGLEWVSYISSSGSTIYYADSVKGRFTISRDNAKNSLYLQMNSLRAEDTAVYYCARARGSSGWYRIGTRWGNWFDPWGQGTLVTVSS
VL: QSALTQPASVSGSPGQSITISCTGTSSDVGGYNYVSWYQQHPGKAPKLMIYEVSNRPSGVSNRFSGSKSGNTASLTISGLQAEDEADYYCSSYTSSSNVVFGGGTMLTVL
Does B2 bind [2]?
Result: binds

B3: CV38–142 (antibody, V domains shown)
VH: EVQLVQSGAEVKKPGESLKISCQGSGYSFTSYWIGWVRQMPGKGLEWMGIIYPGESDTRYSSSFQGHVTISADKSISTAYLQWSSLKASDTAMYYCARIRGVYSSGWIGGDYWGQGTLVTVSS
VL: not shown
Does B3 bind [3]?
Result: binds
